Laboratory results: patent US6521594
Non-standard residues stand in square brackets, D forms with d. No end group written: not given here. *: point of attachment. Pmc = Cc1c(C)c(S(=O)(=O)*)c(C)c2c1OC(C)(C)CC2; 2Nal = N[C@@H](Cc1ccc2ccccc2c1)C(=O)O; Pen = CC(C)(S)[C@H](N)C(=O)O

What was measured:
αvβ5 = test: ELISA
[1] = target: Platelet glycoprotein IIb/IIIa (human) (UniProt P08514); test: ELISA
[2] = target: Vitronectin receptor (human) (UniProt P06756); test: competition, ELISA or liposome assay, vitronectin coated
[3] = target: Platelet glycoprotein IIb/IIIa (human) (UniProt P08514); test: cell-based or functional assay

Row | Substance | IC50 (αvβ5) [µM] | other results
1 | (Mpr)NPRGD(Y-OMe)RC-NH2 | 3 | 
2 | Ac(dPen)IPRGD(O-Me-Tyr)RC-NH2 |  | IC50 [1]: 0.002 µM
3 | Ac-(Pmc)NPRGD(Y-OMe)RC-NH2 | 2.34 | 
4 | Ac-CNPRGD(Y-OMe)LC-NH2 | 7.14 | 
5 | G[Pen]GRGDRPCR (cysteine pairing not given here) |  | IC50 [2]: 0.01 µM
6 | R2(Pen)GRGDTPCA (peptide) |  | IC50, ADP-Stimulated Aggregation [3]: 8.2 µM; IC50, Thrombin Stimulated Aggregation [3]: 2.7 µM
7 | R(Pmc)G(DY)RGD(Y-OMe)RCR | 10 | 
8 | R(Pmc)GHRGD(O-Me-Tyr)RCR (Table I, row r54) (peptide) |  | IC50, ADP-Stimulated Aggregation [3]: 0.44 µM
9 | R(Pmc)GHRGD(p-Cl-F)RCR | 15.3 | 
10 | R(Pmc)GHRGD[2Nal]RCR | 10 | 
11 | R(Pmc)GYRGD(Y-OMe)RCR | 8.8 | 
12 | analogue 18 (Asp for Gly at position -2 of R(Pmc)GHRGD(Y-OMe)RCR) (peptide) |  | fold decrease in potency relative to analogue 11 [3]: 4 fold
